This is an account of results in US20100184658A1 (published 2010).

Test in all cases: cell-based or functional assay
The target in one assay is T1, IKBKB (IKK beta) IKK2 (human (printed as (h)), UniProt O14920 1-756, limits assumed).
T1 sequence (looked up): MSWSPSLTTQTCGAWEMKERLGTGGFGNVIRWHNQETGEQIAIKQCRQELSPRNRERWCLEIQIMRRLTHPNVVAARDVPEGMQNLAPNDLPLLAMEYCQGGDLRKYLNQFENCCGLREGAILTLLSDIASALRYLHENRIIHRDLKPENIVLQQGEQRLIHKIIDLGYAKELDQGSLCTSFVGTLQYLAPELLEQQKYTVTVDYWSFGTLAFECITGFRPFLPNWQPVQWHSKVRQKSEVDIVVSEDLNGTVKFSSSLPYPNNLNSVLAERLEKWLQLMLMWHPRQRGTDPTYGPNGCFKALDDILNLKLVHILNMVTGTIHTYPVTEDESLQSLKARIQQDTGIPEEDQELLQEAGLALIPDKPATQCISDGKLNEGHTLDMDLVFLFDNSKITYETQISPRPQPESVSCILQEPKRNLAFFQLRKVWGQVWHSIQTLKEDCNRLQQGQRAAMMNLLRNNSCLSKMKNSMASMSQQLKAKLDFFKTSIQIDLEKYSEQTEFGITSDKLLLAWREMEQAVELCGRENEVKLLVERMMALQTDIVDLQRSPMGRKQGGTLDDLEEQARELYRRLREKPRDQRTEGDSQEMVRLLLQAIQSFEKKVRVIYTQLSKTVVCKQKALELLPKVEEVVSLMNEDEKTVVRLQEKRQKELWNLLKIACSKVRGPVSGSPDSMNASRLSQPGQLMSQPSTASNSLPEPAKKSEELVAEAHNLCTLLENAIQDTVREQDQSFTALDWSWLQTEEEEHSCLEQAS

In assay [1] the target is T2, NEK1 NIMA (never in mitosis gene a)-related kinase 1 (UniProt Q96PY6 1-505, limits assumed).
T2 sequence (looked up): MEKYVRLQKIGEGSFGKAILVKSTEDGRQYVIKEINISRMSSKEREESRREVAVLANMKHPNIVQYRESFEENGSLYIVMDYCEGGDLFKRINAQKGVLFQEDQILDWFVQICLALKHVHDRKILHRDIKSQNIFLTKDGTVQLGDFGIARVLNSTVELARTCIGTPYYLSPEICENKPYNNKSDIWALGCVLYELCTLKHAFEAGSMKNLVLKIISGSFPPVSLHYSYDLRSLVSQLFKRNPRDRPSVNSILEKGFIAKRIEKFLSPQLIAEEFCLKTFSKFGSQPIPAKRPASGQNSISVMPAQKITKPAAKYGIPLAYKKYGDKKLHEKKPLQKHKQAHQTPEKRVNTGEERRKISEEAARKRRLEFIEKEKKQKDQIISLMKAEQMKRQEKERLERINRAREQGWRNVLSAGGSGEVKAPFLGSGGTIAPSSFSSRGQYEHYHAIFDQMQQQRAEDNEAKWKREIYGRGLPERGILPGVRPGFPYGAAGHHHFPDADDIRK

Assay [2] deals with RPS6KA1 (RSK1) Ribosomal protein S6 kinase, 90 kDa, polypeptide 1 (UniProt Q15418 1-735, limits assumed).
The target in assay [3] is T3, SGK (SGK1) Serum/glucocorticoid regulated kinase (human (printed as (h)), UniProt O00141 60-431, limits assumed).
T3 sequence (looked up): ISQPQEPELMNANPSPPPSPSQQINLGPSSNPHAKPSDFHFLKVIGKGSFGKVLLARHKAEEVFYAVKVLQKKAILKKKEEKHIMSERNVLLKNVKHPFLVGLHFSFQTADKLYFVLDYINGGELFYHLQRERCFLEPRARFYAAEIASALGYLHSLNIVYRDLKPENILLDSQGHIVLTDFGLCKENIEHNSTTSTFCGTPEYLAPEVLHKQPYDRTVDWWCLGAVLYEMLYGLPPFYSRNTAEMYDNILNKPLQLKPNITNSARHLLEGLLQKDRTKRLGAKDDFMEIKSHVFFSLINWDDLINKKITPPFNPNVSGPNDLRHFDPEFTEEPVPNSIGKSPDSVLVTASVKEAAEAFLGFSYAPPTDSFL

Assay [4] concerns the target RPS6KB1 (p70S6K) Ribosomal protein S6 kinase, 70 kDa, polypeptide 1 (human (printed as (h)), UniProt P23443 1-421, limits assumed).
In the next assay the target is T4, DYRK4 (UniProt Q9NR20 1-520, limits assumed).
T4 sequence (looked up): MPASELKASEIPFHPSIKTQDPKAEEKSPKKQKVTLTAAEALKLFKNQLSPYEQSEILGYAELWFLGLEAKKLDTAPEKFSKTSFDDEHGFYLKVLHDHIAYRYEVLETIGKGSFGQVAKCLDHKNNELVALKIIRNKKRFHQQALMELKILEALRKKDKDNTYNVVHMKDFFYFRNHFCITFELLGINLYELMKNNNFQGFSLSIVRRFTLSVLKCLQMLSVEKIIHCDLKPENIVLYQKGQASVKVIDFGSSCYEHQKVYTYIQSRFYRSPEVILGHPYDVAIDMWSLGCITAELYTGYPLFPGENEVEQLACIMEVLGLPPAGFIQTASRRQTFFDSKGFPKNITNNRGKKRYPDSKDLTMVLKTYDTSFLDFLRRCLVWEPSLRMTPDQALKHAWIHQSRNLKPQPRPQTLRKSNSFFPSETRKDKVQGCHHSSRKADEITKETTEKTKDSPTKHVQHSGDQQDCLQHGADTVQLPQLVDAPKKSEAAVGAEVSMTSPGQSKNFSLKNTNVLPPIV

The target of assay [5] is MAP2K2 (MEK2) Mitogen-activated protein kinase kinase 2 (UniProt P36507 1-400, limits assumed).
Assay [6] addresses MAPK10 (JNK3) Mitogen-activated protein kinase 10 (UniProt P53779 1-464, limits assumed).
The target of a further assay is T5, TYK2 (UniProt P29597 871-1187, limits assumed).
T5 sequence (looked up): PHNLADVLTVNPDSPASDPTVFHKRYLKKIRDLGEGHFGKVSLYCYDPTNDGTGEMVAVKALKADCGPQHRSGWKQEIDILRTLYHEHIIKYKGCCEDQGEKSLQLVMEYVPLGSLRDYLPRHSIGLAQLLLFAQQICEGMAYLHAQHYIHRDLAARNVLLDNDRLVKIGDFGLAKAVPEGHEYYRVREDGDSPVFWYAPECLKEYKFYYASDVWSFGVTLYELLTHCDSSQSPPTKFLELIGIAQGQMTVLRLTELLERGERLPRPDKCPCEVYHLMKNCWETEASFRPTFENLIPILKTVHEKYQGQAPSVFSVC
Note: test concentration or dose not given here.

RPS6KB1 (p70S6K) Ribosomal protein S6 kinase, 70 kDa, polypeptide 1 (human (printed as (h)), UniProt P23443 1-421, limits assumed), sequence (P23443 1-421 limits assumed): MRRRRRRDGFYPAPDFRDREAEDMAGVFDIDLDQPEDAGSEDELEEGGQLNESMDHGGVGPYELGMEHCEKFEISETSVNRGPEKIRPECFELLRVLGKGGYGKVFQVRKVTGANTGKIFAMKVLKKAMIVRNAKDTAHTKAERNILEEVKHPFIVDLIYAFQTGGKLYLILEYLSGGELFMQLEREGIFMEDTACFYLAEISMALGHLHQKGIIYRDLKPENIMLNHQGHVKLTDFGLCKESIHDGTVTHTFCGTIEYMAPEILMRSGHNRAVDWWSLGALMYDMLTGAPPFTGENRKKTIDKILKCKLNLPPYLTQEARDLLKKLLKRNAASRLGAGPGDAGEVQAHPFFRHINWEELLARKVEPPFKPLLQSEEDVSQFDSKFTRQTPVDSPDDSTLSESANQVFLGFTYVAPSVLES
MAPK10 (JNK3) Mitogen-activated protein kinase 10, sequence (P53779 whole entry): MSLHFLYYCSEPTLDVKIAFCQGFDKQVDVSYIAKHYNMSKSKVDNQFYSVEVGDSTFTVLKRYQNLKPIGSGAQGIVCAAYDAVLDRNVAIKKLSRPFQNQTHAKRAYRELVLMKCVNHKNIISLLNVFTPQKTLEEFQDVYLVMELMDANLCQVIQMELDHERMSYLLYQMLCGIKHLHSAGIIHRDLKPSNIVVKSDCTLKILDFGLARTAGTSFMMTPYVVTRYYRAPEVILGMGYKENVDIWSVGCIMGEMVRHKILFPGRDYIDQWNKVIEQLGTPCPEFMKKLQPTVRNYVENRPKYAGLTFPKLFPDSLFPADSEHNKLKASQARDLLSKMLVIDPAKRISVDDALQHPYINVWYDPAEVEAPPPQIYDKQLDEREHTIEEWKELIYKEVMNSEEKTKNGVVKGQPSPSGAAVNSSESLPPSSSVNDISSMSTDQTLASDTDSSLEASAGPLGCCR
RPS6KA1 (RSK1) Ribosomal protein S6 kinase, 90 kDa, polypeptide 1, sequence (Q15418 whole entry): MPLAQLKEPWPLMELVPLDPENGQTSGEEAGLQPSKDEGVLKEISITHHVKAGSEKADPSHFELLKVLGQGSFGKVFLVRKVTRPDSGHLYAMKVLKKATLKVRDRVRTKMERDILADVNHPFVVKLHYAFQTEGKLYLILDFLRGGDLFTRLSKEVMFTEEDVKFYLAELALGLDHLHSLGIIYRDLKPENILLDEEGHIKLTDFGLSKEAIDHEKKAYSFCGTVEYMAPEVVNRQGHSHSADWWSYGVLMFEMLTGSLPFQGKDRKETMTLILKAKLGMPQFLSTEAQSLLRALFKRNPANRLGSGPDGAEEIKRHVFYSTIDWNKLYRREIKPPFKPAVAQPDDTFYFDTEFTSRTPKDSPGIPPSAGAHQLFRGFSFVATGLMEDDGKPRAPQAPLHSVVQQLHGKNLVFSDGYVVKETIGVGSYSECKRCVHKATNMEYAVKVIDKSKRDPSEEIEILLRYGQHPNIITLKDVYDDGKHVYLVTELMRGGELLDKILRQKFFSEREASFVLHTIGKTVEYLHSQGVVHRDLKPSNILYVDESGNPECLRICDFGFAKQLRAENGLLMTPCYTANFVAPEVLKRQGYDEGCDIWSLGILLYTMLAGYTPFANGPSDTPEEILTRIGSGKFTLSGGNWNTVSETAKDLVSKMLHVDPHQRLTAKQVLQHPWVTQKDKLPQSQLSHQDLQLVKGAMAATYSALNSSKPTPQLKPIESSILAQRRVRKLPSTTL

Take SGRPPMIVWFNRPFLIAVSHTHGQTILFMAKVINPVGA [D3 peptide]: the “% Inhibition mean” value with IKBKB (IKK beta) IKK2 amounted to 41%; in [1] it was 84%; in assay [2], 98.3%; in assay [3], 100%; in [4], 100%; with DYRK4 it was 61.2%. The “% Inhibition mean” value in [5] is 105%; in assay [6] it was 90.7%; with TYK2, 70.5%.
